Reference: the supplement of paper PMC5998384

Key:
HeLa Kyoto [1] = experiment: solubility in G1/S (NP-40 vs SDS abundance) (log2 ratio); higher = more soluble; settings: cell cycle stage: G1/S
HeLa Kyoto [2] = experiment: melting temperature (median over replicates), in situ; higher = more thermally stable
HeLa Kyoto [3] = experiment: solubility change mitosis vs G1/S (difference of NP-40 vs SDS log2 ratios) (log2 ratio difference); higher = more soluble in mitosis
HeLa Kyoto [4] = experiment: thermal stability score vs G1/S (z-score of summed log2 fold changes over temperatures); higher = more thermally stable than in G1/S
[5] = cell cycle stage: early G1 (4.5 h after nocodazole release)
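For melting temperature (median over replicates), in situ in this document: HeLa Kyoto cells synchronized by double thymidine or nocodazole block, proteins quantified by TMT10plex mass spectrometry, three independent biological replicates.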
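For solubility change mitosis vs G1/S (difference of NP-40 vs SDS log2 ratios) in this document: synchronized HeLa Kyoto cells (double thymidine block for G1/S, nocodazole release for mitosis), protein amounts in NP-40 versus SDS lysates quantified by mass spectrometry, three biological replicates.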
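For solubility in G1/S (NP-40 vs SDS abundance) in this document: HeLa Kyoto cells arrested at G1/S by double thymidine block, proteins quantified by TMT10plex mass spectrometry in mild NP-40 versus SDS extracts, three biological replicates.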
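For thermal stability score vs G1/S (z-score of summed log2 fold changes over temperatures) in this document: synchronized HeLa Kyoto cells, proteins quantified by TMT10plex mass spectrometry, three biological replicates, mitosis taken 0.5 h after nocodazole release, G1/S directly after double thymidine block.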

UBE2V2, sequence (chain, as listed by the source): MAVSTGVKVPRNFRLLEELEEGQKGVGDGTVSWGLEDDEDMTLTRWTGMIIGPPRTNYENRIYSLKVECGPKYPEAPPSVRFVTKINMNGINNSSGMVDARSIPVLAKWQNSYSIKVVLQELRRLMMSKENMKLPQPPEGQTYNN
PCYT1A, sequence (chain, as listed by the source): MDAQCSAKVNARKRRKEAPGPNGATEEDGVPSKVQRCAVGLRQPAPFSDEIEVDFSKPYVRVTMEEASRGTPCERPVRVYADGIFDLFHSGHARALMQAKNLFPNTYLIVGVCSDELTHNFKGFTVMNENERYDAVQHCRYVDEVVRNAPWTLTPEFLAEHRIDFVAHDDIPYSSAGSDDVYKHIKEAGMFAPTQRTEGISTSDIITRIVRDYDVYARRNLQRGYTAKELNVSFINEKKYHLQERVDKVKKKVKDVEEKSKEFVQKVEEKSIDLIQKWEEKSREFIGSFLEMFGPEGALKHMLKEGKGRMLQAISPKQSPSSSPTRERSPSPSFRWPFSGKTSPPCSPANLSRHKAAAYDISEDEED
NCOA3, sequence (chain, as listed by the source): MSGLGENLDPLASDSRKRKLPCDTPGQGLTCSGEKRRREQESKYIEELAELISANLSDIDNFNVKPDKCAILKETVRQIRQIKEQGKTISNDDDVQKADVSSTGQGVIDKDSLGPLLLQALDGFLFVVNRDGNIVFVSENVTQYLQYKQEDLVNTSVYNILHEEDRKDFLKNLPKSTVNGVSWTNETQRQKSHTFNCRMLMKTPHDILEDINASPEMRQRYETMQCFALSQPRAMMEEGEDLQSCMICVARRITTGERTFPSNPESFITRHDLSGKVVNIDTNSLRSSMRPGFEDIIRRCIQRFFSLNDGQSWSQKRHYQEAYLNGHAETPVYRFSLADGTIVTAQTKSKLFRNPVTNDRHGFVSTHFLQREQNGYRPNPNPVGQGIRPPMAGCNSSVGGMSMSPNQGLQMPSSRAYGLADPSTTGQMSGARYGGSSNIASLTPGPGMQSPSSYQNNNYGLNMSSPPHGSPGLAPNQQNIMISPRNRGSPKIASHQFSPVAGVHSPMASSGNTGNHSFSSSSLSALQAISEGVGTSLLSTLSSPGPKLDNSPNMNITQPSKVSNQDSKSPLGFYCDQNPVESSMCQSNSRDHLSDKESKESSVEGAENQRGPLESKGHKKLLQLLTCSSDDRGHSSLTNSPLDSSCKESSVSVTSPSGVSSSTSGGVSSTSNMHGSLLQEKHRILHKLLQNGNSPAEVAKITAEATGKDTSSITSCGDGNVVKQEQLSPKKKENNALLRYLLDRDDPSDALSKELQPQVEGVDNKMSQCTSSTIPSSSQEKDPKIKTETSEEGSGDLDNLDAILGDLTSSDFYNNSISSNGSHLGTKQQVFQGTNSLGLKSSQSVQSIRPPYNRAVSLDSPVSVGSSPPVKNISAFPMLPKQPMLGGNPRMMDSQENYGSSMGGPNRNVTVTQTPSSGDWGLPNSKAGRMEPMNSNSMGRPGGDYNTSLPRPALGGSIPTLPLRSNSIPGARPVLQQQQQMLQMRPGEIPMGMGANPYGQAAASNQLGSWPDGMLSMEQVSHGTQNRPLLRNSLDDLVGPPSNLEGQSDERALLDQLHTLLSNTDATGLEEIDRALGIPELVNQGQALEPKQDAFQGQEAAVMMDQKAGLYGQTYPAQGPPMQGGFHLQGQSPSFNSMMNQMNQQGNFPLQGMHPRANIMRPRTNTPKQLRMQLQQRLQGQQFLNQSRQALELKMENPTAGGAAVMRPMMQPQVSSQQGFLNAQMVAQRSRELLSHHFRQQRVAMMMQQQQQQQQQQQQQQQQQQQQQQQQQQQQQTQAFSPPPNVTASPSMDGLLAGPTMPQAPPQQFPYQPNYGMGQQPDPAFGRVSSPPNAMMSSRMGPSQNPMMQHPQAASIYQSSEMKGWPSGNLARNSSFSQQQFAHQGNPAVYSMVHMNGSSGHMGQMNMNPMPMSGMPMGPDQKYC
PGRMC1, sequence (chain, as listed by the source): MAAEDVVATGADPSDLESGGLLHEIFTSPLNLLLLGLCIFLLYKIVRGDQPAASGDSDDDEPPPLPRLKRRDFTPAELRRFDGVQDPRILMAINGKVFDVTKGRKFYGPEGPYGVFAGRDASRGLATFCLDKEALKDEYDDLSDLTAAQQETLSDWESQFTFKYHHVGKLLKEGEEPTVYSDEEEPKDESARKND
NLE1, sequence (chain, as listed by the source): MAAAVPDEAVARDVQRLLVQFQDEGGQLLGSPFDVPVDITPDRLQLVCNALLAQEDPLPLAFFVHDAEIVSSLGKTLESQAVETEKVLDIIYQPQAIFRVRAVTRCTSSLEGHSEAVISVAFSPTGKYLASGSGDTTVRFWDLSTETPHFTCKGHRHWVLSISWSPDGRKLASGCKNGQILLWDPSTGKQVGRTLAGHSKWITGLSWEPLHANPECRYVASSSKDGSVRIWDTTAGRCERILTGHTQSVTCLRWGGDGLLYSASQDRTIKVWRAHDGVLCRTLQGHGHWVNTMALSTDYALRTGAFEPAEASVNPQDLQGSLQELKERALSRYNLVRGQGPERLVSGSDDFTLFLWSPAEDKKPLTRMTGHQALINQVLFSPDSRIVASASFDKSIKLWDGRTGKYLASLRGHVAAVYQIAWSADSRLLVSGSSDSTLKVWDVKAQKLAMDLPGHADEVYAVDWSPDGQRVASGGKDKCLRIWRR
PRRC2A, sequence (chain, as listed by the source): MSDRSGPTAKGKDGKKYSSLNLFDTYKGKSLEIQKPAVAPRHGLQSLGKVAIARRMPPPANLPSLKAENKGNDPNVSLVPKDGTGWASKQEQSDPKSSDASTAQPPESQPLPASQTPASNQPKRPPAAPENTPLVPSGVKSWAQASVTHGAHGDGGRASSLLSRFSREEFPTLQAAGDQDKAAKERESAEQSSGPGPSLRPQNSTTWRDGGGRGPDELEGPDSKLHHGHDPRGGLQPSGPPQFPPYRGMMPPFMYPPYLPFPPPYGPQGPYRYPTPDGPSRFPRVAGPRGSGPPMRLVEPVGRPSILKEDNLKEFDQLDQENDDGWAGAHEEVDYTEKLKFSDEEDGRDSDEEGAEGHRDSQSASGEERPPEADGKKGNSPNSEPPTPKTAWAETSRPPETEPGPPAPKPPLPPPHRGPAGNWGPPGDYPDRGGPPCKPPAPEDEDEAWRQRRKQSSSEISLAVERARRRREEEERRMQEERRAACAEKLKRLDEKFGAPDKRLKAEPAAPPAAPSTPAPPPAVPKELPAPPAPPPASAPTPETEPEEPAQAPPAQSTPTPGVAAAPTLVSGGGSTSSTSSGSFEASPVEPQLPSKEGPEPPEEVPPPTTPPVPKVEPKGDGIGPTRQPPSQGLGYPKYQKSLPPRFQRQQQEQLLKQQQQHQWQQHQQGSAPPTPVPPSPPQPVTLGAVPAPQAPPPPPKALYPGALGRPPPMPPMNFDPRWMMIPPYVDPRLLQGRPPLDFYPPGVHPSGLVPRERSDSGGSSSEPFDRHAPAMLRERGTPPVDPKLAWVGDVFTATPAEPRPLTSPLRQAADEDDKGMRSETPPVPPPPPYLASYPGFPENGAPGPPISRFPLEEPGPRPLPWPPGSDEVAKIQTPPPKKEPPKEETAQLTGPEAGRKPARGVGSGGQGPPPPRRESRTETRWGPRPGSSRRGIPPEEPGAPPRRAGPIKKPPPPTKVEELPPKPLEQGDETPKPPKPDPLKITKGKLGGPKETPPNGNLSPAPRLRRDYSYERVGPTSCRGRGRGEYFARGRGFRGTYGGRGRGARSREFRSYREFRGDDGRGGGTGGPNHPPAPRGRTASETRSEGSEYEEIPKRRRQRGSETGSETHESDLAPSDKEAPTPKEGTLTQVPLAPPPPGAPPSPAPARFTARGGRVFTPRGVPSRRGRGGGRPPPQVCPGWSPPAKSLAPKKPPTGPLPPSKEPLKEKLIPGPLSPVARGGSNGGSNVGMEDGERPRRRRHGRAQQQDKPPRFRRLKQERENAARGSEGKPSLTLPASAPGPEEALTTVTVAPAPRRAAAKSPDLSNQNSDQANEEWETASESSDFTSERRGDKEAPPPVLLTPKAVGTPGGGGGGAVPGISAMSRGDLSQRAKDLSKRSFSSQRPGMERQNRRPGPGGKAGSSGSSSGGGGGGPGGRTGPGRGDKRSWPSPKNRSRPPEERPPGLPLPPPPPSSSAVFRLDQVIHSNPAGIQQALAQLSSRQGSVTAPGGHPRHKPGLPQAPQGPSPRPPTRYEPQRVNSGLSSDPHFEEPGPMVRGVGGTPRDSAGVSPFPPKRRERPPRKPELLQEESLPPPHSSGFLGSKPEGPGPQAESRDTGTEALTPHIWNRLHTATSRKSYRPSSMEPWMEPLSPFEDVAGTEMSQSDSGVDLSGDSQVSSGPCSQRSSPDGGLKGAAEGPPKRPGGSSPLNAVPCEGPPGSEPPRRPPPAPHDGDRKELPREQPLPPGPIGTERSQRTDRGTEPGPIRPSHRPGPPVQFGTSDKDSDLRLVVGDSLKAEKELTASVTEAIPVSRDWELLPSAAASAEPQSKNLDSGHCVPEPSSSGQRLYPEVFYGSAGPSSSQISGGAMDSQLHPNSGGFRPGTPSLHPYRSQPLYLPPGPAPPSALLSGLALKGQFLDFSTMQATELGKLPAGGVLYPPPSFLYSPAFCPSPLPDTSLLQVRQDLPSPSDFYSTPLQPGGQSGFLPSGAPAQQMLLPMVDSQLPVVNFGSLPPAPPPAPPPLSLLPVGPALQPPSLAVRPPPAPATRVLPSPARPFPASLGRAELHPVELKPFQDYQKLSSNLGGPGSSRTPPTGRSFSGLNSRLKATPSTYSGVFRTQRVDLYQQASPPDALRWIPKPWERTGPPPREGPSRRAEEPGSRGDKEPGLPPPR

| Substance | solubility in G1/S (log2) (HeLa Kyoto [1]) | melting temperature (HeLa Kyoto [2]; cell cycle stage: G1/S) [°C] | melting temperature (HeLa Kyoto [2]; cell cycle stage: mitosis) [°C] | solubility change mitosis (log2) (HeLa Kyoto [3]) | thermal stability score (HeLa Kyoto [4]; [5]) | thermal stability score (HeLa Kyoto [4]; cell cycle stage: mitosis) |
| --- | --- | --- | --- | --- | --- | --- |
| MYLVAGDRGLAGCGHLLVSLLGLLLLLARSGTRALVCLPCDESKCEEPRNCPGSIVQGVCGCCYTCASQRNESCGGTFGIYGTCDRGLRCVIRPPLNGDSLTEYEAGVCEDENWTDDQLLGFKPCNENLIAGCNIINGKCECNTIRTCSNPFEFPSQDMCLSALKRIEEEKPDCSKARCEVQFSPRCPEDSVLIEGYAPPGECCPLPSRCVCNPAGCLRKVCQPGNLNILVSKASGKPGECCDLYECKPVFGVDCRTVECPPVQQTACPPDSYETQVRLTADGCCTLPTRCECLSGLCGFPVCEVGSTPRIVSRGDGTPGKCCDVFECVNDTKPACVFNNVEYYDGDMFRMDNCRFCRCQGGVAICFTAQCGEINCERYYVPEGECCPVCEDPVYPFNNPAGCYANGLILAHGDRWREDDCTFCQCVNGERHCVATVCGQTCTNPVKVPGECCPVCEEPTIITVDPPACGELSNCTLTGKDCINGFKRDHNGCRTCQCINTEELCSERKQGCTLNCPFGFLTDAQNCEICECRPRPKKCRPIICDKYCPLGLLKNKHGCDICRCKKCPELSCSKICPLGFQQDSHGCLICKCREASASAGPPILSGTCLTVDGHHHKNEESWHDGCRECYCLNGREMCALITCPVPACGNPTIHPGQCCPSCADDFVVQKPELSTPSICHAPGGEYFVEGETWNIDSCTQCTCHSGRVLCETEVCPPLLCQNPSRTQDSCCPQCTDQPFRPSLSRNNSVPNYCKNDEGDIFLAAESWKPDVCTSCICIDSVISCFSESCPSVSCERPVLRKGQCCPYCIEDTIPKKVVCHFSGKAYADEERWDLDSCTHCYCLQGQTLCSTVSCPPLPCVEPINVEGSCCPMCPEMYVPEPTNIPIEKTNHRGEVDLEVPLWPTPSENDIVHLPRDMGHLQVDYRDNRLHPSEDSSLDSIASVVVPIIICLSIIIAFLFINQKKQWIPLLCWYRTPTKPSSLNNQLVSVDCKKGTRVQVDSSQRMLRIAEPDARFSGFYSMQKQNHLQADNFYQTV [CRIM1] | -0.0525 | 53.8 | 54.9 | -0.0635 | -2.44 | -0.713 |
| MYO5B | -0.588 | 49.7 | 53.1 | 0.158 | -0.778 | -0.163 |
| MYO5C | -0.665 | 50.9 | – | 0.291 | 0.384 | 1.14 |
| MYPESTTGSPARLSLRQTGSPGMIYSTRYGSPKRQLQFYRNLGKSGLRVSCLGLGTWVTFGGQITDEMAEQLMTLAYDNGINLFDTAEVYAAGKAEVVLGNIIKKKGWRRSSLVITTKIFWGGKAETERGLSRKHIIEGLKASLERLQLEYVDVVFANRPDPNTPMEETVRAMTHVINQGMAMYWGTSRWSSMEIMEAYSVARQFNLTPPICEQAEYHMFQREKVEVQLPELFHKIGVGAMTWSPLACGIVSGKYDSGIPPYSRASLKGYQWLKDKILSEEGRRQQAKLKELQAIAERLGCTLPQLAIAWCLRNEGVSSVLLGASNADQLMENIGAIQVLPKLSSSIIHEIDSILGNKPYSKKDYRS [KCNAB2] | 0.117 | 60.3 | 58.8 | -0.201 | -0.252 | 3.11 |
| MYRALRLLARSRPLVRAPAAALASAPGLGGAAVPSFWPPNAARMASQNSFRIEYDTFGELKVPNDKYYGAQTVRSTMNFKIGGVTERMPTPVIKAFGILKRAAAEVNQDYGLDPKIANAIMKAADEVAEGKLNDHFPLVVWQTGSGTQTNMNVNEVISNRAIEMLGGELGSKIPVHPNDHVNKSQSSNDTFPTAMHIAAAIEVHEVLLPGLQKLHDALDAKSKEFAQIIKIGRTHTQDAVPLTLGQEFSGYVQQVKYAMTRIKAAMPRIYELAAGGTAVGTGLNTRIGFAEKVAAKVAALTGLPFVTAPNKFEALAAHDALVELSGAMNTTACSLMKIANDIRFLGSGPRSGLGELILPENEPGSSIMPGKVNPTQCEAMTMVAAQVMGNHVAVTVGGSNGHFELNVFKPMMIKNVLHSARLLGDASVSFTENCVVGIQANTERINKLMNESLMLVTALNPHIGYDKAAKIAKTAHKNGSTLKETAIELGYLTAEQFDEWVKPKDMLGPK [FH] | 0.478 | 53.5 | 53.4 | 0.0382 | 1.14 | -0.915 |
| NCOA3 | 0.355 | 51.2 | 49.8 | -0.0688 | 0.836 | 1.22 |
| NFIA | -0.00202 | 59 | 62.1 | 0.0442 | 0.325 | 1.68 |
| NIPBL | -0.446 | 47.3 | 49.3 | 0.263 | 2.24 | 6.45 |
| NLE1 | -0.35 | 53 | 54.2 | 0.0775 | -1.88 | -4.55 |
| NUP210 | -0.0147 | 54.3 | 53.7 | 0.0421 | 6.11 | 9.9 |
| PACS1 | 0.119 | 50.8 | 51.4 | -0.211 | -0.425 | 0.437 |
| PCMT1 | 0.427 | 54 | 54.8 | 0.147 | 0.536 | -0.469 |
| PCYT1A | 0.341 | 51.4 | 52.4 | -0.0895 | 2.25 | 3.79 |
| PDE4DIP | 0.0173 | 51.6 | – | 0.0943 | 0.534 | 0.401 |
| PGRMC1 | 0.15 | 53.1 | 52.8 | 0.219 | -0.433 | -0.0697 |
| PKN2 | -0.0314 | 48.3 | 49.3 | -0.163 | 0.95 | 1.36 |
| PLPP2 | -0.0273 | 55 | 54.3 | -0.279 | 0.347 | -1.64 |
| PLXNB2 | -0.0357 | 52.2 | 51.1 | -0.0477 | -1.95 | -2.08 |
| PLXND1 | 0.0061 | 49.5 | 48.7 | -0.0638 | 0.367 | 0.672 |
| POLD2 | 0.263 | 49.9 | 49.5 | -0.136 | 1.48 | 2.07 |
| POLE | -0.355 | 49.5 | 51.5 | -0.0472 | 0.724 | 1.31 |
| PRRC2A | -0.105 | 53.7 | 55.1 | 0.0463 | 0.422 | 0.00992 |
| RIF1 | -0.28 | 47.3 | 49.6 | 0.0253 | 2.16 | 5.52 |
| RNGTT | -0.301 | 47.7 | 48.7 | -0.0839 | 0.407 | 0.579 |
| SAR1A | 0.207 | 52 | 52.8 | -0.239 | 2.01 | 1.85 |
| SDE2 | 0.563 | 49.5 | 49.5 | 0.0378 | 2.03 | 1.98 |
| SEPHS1 | 0.503 | 58.8 | 58.8 | -0.0554 | -1.3 | -1.24 |

| Substance | solubility in G1/S (log2) (HeLa Kyoto [1]) | melting temperature (HeLa Kyoto [2]; cell cycle stage: G1/S) [°C] | melting temperature (HeLa Kyoto [2]; cell cycle stage: mitosis) [°C] | solubility change mitosis (log2) (HeLa Kyoto [3]) | thermal stability score (HeLa Kyoto [4]; [5]) | thermal stability score (HeLa Kyoto [4]; cell cycle stage: mitosis) |
| --- | --- | --- | --- | --- | --- | --- |
| SETD2 | -0.43 | 48.1 | 50.2 | 0.19 | 0.914 | 2.05 |
| SLC15A4 | 0.0784 | 55.4 | 56.5 | -0.171 | -2.84 | -2.51 |
| SLC27A2 | -0.335 | 50 | 50.3 | -0.133 | 2.25 | 2.44 |
| SMG1 | -0.17 | 50.3 | 50.2 | -0.102 | -0.61 | -0.143 |
| SNRNP200 | -0.756 | 50 | 50.8 | 0.171 | 2.93 | 4.86 |
| THOC2 | -0.681 | 48.6 | 49.5 | 0.221 | -3.49 | -0.552 |
| TOR1AIP1 | -0.0913 | 54.4 | 54.9 | 0.144 | 1.27 | 1.41 |
| TPR | -0.23 | 50.3 | 50.8 | 0.191 | -1.4 | 0.657 |
| TRPM7 | -0.312 | 51.6 | 51.4 | -0.0119 | 0.936 | 0.742 |
| TSC2 | -0.16 | 49.6 | 50.9 | -0.0844 | 0.00265 | 0.786 |
| TSR3 | 0.0751 | 54.3 | 54.3 | -0.12 | 0.927 | -0.253 |
| UBE2V2 | 0.464 | 52.5 | 52.9 | 0.122 | 0.348 | -0.815 |
| UBR2 | -0.361 | 49.9 | 49.8 | -0.184 | 0.798 | 1.58 |
| UGGT2 | -0.222 | 54 | 54.1 | -0.15 | 2.37 | 4.53 |
| UNC119B | 0.268 | 50.6 | 50.3 | -0.089 | -0.908 | -0.273 |
| USP34 | -0.314 | 49.5 | 50.2 | -0.0816 | 0.493 | 1.73 |
| UTRN | 0.0106 | 49 | 48.5 | -0.109 | 0.795 | 1.84 |
| WBSCR16 | -0.259 | 53.6 | 52.7 | -0.168 | 0.481 | -0.564 |
| WDR48 | -0.162 | 52.5 | 53.9 | -0.036 | 3.81 | 2.36 |
| WIZ | -0.0213 | 50.4 | 50.8 | 0.321 | 0.511 | -0.305 |
| XRN1 | -0.345 | 49 | 48.5 | -0.0622 | 0.741 | 0.939 |
| ZC3H13 | -0.595 | 49.5 | 50.7 | 0.414 | 0.124 | 2.39 |
| ZCCHC11 | -0.0583 | 50.6 | 49.4 | -0.11 | 0.72 | 1.31 |
| ZNF207 | 0.0156 | 55.8 | 55.4 | 0.36 | -5.35 | -6.05 |
| ZNF638 | -0.709 | 48.1 | 50.2 | 0.363 | 1.39 | 4.74 |
| ZSWIM8 | -0.162 | 49.2 | 49 | -0.0253 | 0.66 | 1.55 |
